Data published in PMC4622054.

Biological target: Human FcRn (hFcRn), soluble α-chain/β2m heterodimer, P55899;P61769
Assay: BLI (in vitro BLI-based FcRn platform)
Conditions: chain shown with the change;, read off a plot

Binder | other: Predicted Human t1/2, β (parent: est. 690) | other: Predicted Human t1/2, β (parent: est. 270)
CDA1 (actoxumab), fully human IgG1 mAb CDA (with HCV VH CDRs): VH CDR1-3 of CDA1 replaced by VH CDRs of HCV1; residues not printed (protein) chain 1: QVQLVESGGGVVQPGRSLRLSCAASGFTFNNYGMHWVRQAPGKGLEWVALIWFDENNKDYTDSVKGRFTISRDNSKNTLYLQMNSLRAEDTAVYYCARDISLVRDAFIYFDFWGQGTVVTVSS chain 2: DIQMTQSPSSVSASVGDRVTITCRASQGISSWLAWYQHKPGKAPKLLIYAASSLQSGVPSRFSGSGSGTDFTLTISSLQPEDFATYYCQQANSFPWTFGQGTKVEIK | 15 days | –
HCV1, fully human IgG1 mAb HCV (with CDA VH CDRs): VH CDR1-3 of HCV1 replaced by VH CDRs of CDA1; residues not printed (protein) chain 1: EVQLLESGGGVVQPGRSLRLSCTASGFSFSNYGMHWVRQTPGKGLEWLAVIWYDGSNEYYADSVRGRFTISRDNSKNTLFLQMNSLKTEDTAMYYCARWGMVRGVIDVFDIWGLGTLVTVSS chain 2: ELTLTQSPATLSLSPGERATLSCRASQSVSSYLAWYQQKPGQAPRLLIYDASNRATGIPARFSGSGSGTDFTLTISSLEPEDFAVYYCQQRSNWITFGQGTRLEIK | – | 22.9 days
HCV1, fully human IgG1 mAb HCV (with CDB Vk CDRs): Vk CDR1-3 of HCV1 replaced by Vk CDRs of CDB1; residues not printed (protein) chain 1: EVQLLESGGGVVQPGRSLRLSCTASGFTFNNYGMHWVRQTPGKGLEWLAVIWFDENNKYYADSVRGRFTISRDNSKNTLFLQMNSLKTEDTAMYYCARDISLVRDAFIYFDFWGLGTLVTVSS chain 2: ELTLTQSPATLSLSPGERATLSCRASQSVSSSYLAWYQQKPGQAPRLLIYGASNRATGIPARFSGSGSGTDFTLTISSLEPEDFAVYYCQQYGSSTWTFGQGTRLEIK | – | 13.3 days
